Test results from patent publication US20250269048A1 (BIVICTRIX, published 2025).
Where a chain is given by its changes, count along the chain named. Read-outs that look alike come from different tables or passages of the source. Values belong to the binder of their own block, whether it stands above or below them.

Tests used:
[1] = molecular target: T1, human CD33 (human, UniProt P20138 18-259, limits assumed); assay: SPR (Kd); value of the CD33 arm 33-PP-1 WT
T1 construct: The construct is not described
T1 sequence (P20138 18-259 limits assumed): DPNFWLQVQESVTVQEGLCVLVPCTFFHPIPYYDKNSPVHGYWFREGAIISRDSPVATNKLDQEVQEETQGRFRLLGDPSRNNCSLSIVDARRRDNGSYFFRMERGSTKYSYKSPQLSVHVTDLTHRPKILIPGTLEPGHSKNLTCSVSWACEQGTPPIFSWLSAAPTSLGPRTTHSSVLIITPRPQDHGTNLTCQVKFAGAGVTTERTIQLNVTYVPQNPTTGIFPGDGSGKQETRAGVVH

[2] = molecular target: T2, human CD7 (human, UniProt P09564 26-180, limits assumed); assay: SPR (Kd); value of the CD7 arm 7-PP-1 WT
T2 construct: The construct is not described
T2 sequence (looked up): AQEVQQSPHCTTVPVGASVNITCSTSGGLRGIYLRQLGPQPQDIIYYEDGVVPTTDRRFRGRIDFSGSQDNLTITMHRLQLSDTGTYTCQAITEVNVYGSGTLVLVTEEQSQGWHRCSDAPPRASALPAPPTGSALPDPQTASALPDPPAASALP

[3] = molecular target: T2, human CD7; assay: SPR (Kd); value of the CD7 arm 7-PP-13
[4] = molecular target: T1, human CD33; assay: SPR (Kd); value of the CD33 arm 33-PP-4
[5] = molecular target: T1, human CD33; assay: SPR
[6] = molecular target: T3, human CD33 on cells (human, UniProt P20138 18-364); assay: FACS; cells not named
T3 construct: whole, on cells; also called CD33+ cells; MV4.11 (CD7-/CD33+)
T3 sequence (P20138 18-364): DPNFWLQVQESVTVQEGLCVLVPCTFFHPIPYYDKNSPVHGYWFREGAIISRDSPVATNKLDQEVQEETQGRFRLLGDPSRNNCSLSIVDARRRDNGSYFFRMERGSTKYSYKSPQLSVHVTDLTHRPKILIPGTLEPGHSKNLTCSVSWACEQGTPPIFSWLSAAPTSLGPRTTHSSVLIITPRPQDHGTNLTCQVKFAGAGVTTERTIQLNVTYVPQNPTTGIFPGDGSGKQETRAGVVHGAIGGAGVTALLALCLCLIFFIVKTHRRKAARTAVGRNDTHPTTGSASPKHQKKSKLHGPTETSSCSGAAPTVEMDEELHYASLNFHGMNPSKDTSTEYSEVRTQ

[7] = molecular target: T1, human CD33; assay: SPR (Kd); value of the CD33 arm 33-PP-7
[8] = molecular target: T2, human CD7; assay: SPR (Kd); value of the CD7 arm 7-PP-3
[9] = molecular target: T2, human CD7; assay: SPR (Kd); value of the CD7 arm 7-PP-8
[10] = molecular target: T1, human CD33; assay: SPR; reference 33-PP-1 WT
[11] = molecular target: T2, human CD7; assay: SPR (Kd); value of the CD7 arm 7-PP-2
[12] = molecular target: T4, human CD7 on cells (human, UniProt P09564 26-240); assay: cell capt. exp.; design: unit not given here
T4 sequence (looked up): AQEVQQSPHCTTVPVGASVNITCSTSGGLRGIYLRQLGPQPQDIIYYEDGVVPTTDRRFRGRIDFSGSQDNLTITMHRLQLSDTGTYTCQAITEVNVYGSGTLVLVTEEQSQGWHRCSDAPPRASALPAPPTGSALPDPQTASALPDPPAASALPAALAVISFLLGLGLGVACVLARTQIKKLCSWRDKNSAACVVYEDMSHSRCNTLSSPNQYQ

[13] = molecular target: T2, human CD7; assay: SPR; reference 7-PP-1 WT
[14] = molecular target: T2, human CD7; assay: SPR
[15] = molecular target: T2, human CD7; assay: SPR; reference 7-AA-WT
[16] = molecular target: T4, human CD7 on cells; assay: FACS; reference 7-PP-1 WT
[17] = molecular target: T4, human CD7 on cells; assay: FACS; cells not named

B1: BVX100 (bispecific antibody)
heavy: QVQLQESGAELVKPGASVKLSCKASGYTFTSYWMHWVKQRPGQGLEWIGKINPSNGRTNYNEKFKSKATLTVDKSSSTAYMQLSSLTSEDSAVYYCARGGVYYDLYYYALDYWGQGTTVTVSSASTKGPSVFPLAPSSKSTSGGTAALGCLVKDYFPEPVTVSWNSGALTSGVHTFPAVLQSSGLYSLSSVVTVPSSSLGTQTYCCNVNHKPSNTKVDKKVEPKSCDKT
light: DIELTQSPATLSVTPGDSVSLSCRASQSISNNLHWYQQKSHESPRLLIKSASQSISGIPSRFSGSGSGTDFTLSINSVETEDFGMYFCQQSNSWPYTFGGGTKLEIKRTVAAPSVFIFPPSDEQLKSGTASVVCLLNNFYPREAKVQWKVDNALQSGNSQESVTEQDSKDSTYSLSSTLTLSKADYEKHKVYACEVTHQGLSSPVTKSFNRGEC
VH: EVQLVQSGAEVKKPGSSVKVSCKASGYTITDSNIHWVRQAPGQSLEWIGYIYPYNGGTDYNQKFKNRATLTVDNPTNTAYMELSSLRSEDTAFYYCVNGNPWLAYWGQGTLVTVSS
VL: DIQLTQSPSTLSASVGDRVTIICRASESLDNYGIRFLTWFQQKPGKAPKLLMYAASNQGSGVPSRFSGSGSGTEFTLTISSLQPDDFATYYCQQTKEVPWSFGQGTKLEIK
notes: also called CD33-PP-1 WT/CD7-PP-1 WT
Fold reduction in binding affinity vs 33-PP-1 WT [1]: 0 fold
Fold reduction in binding affinity vs 7-PP-1 WT [2]: 0 fold

B3: CD33-PP-1-WT binding arm (Fab, V domains shown)
VH: B1 VH
VL: B1 VL
Kd [5]: 1.36 nM
FACS binding [6]: 0.16 nM

B4: BVX162 (bispecific antibody)
heavy: B1 heavy with Y108A
light: B1 light
VH: B1 VH with W102Y, Y105A
VL: B1 VL
notes: bi-Fab; also called CD33-PP-7/CD7-PP-13
Fold reduction in binding affinity vs 33-PP-1 WT [7]: 68 fold
Fold reduction in binding affinity vs 7-PP-1 WT [3]: 20.3 fold

B5: BVX120 (bispecific antibody)
heavy: B1 heavy with R57K
light: B1 light
VH: B1 VH
VL: B1 VL
notes: bi-Fab; also called CD33-PP-1 WT/CD7-PP-3
Fold reduction in binding affinity vs 7-PP-1 WT [8]: 9.1 fold
Fold reduction in binding affinity vs 33-PP-1 WT [1]: 0 fold

B10: CD33-PP-4 binding arm (Fab, V domains shown)
VH: B1 VH with W102Y
VL: B1 VL
Kd [5]: 52.7 nM
Fold Reduction in binding affinity compared to 33-PP-1 WT (Kd, nM) [10]: 38.8 fold
FACS binding [6]: 321 nM

B11: BVX150 (bispecific antibody)
heavy: B1 heavy with R57K, Y108A
light: B1 light
VH: B1 VH
VL: B1 VL
notes: bi-Fab; also called CD33-PP-1 WT/CD7-PP-8
Fold reduction in binding affinity vs 7-PP-1 WT [9]: 64.3 fold
Fold reduction in binding affinity vs 33-PP-1 WT [1]: 0 fold

B12: BVX160 (bispecific antibody)
heavy: B1 heavy with Y108A
light: B1 light
VH: B1 VH
VL: B1 VL
notes: bi-Fab; also called CD33-PP-1 WT/CD7-PP-13
Fold reduction in binding affinity vs 7-PP-1 WT [3]: 20.3 fold
Fold reduction in binding affinity vs 33-PP-1 WT [1]: 0 fold

B13: BVX102 (bispecific antibody)
heavy: B1 heavy
light: B1 light
VH: B1 VH with W102Y, Y105A
VL: B1 VL
notes: bi-Fab; also called CD33-PP-7/CD7-PP-1 WT
Fold reduction in binding affinity vs 33-PP-1 WT [7]: 68 fold
Fold reduction in binding affinity vs 7-PP-1 WT [2]: 0 fold

B14: CD7-PP-13 CD7 binding arm (Fab, V domains shown)
VH: QVQLQESGAELVKPGASVKLSCKASGYTFTSYWMHWVKQRPGQGLEWIGKINPSNGRTNYNEKFKSKATLTVDKSSSTAYMQLSSLTSEDSAVYYCARGGVYYDLYYAALDYWGQGTTVTVSS
VL: DIELTQSPATLSVTPGDSVSLSCRASQSISNNLHWYQQKSHESPRLLIKSASQSISGIPSRFSGSGSGTDFTLSINSVETEDFGMYFCQQSNSWPYTFGGGTKLEIKR
notes: Heavy chain CDR3 Tyr108Ala; also called 7-PP-13 (mut_17-AA-1)
Affinity from cell capt. exp. [12]: 46
Fold Reduction in binding affinity compared to PP WT (Kd) [13]: 20.3 fold
Kd [14]: 44.5 nM
Kd ([14]; record 2): 72.2 nM
Fold Reduction in binding affinity compared to WT (Kd) [15]: 17 fold
Fold Reduction in binding affinity compared to WT (Kd) ([15]; record 2): 27.5 fold
FACS fold reduction compared to PP WT [16]: 53.2 fold
FACS binding [17]: 28.4

Results, then the binder that gave them:

Fold reduction in binding affinity vs 7-PP-1 WT [3]: 20.3 fold
Fold reduction in binding affinity vs 33-PP-1 WT [4]: 39 fold
B2: BVX161 (bispecific antibody)
heavy: B1 heavy with Y108A
light: B1 light
VH: B1 VH with W102Y
VL: B1 VL
notes: bi-Fab; also called CD33-PP-4/CD7-PP-13

Fold reduction in binding affinity vs 7-PP-1 WT [9]: 87 fold
Fold reduction in binding affinity vs 33-PP-1 WT [7]: 68 fold
B6: BVX152 (bispecific antibody)
heavy: B1 heavy with R57K, Y108A
light: B1 light
VH: B1 VH with W102Y, Y105A
VL: B1 VL
notes: bi-Fab; also called CD33-PP-7/CD7-PP-8

Kd [5]: 92.3 nM
Fold Reduction in binding affinity compared to 33-PP-1 WT (Kd, nM) [10]: 67.9 fold
FACS binding [6]: 464 nM
B7: CD33-PP-7 binding arm (Fab, V domains shown)
VH: B1 VH with W102Y, Y105A
VL: B1 VL

Fold reduction in binding affinity vs 33-PP-1 WT [1]: 0 fold
Fold reduction in binding affinity vs 7-PP-1 WT [11]: 21.3 fold
B8: BVX110 (bispecific antibody)
heavy: B1 heavy with R57G
light: B1 light
VH: B1 VH
VL: B1 VL
notes: bi-Fab; also called CD33-PP-1 WT/CD7-PP-2

Fold reduction in binding affinity vs 33-PP-1 WT [4]: 38.8 fold
Fold reduction in binding affinity vs 7-PP-1 WT [2]: 0 fold
B9: BVX101 (bispecific antibody)
heavy: B1 heavy
light: B1 light
VH: B1 VH with W102Y
VL: B1 VL
notes: bi-Fab; also called CD33-PP-4/CD7-PP-1 WT
